Paper PMC9798831
Values belong to the molecule of their own block, whether it stands above or below them.

What was measured:
[1] = target: ShTnsC (Scytonema hofmanni)
ShTniQ;ShTnsC = target: T1, ShTniQ;ShTnsC (Scytonema hofmanni;Scytonema hofmanni, UniProt A0ABR8GRC6;A0ABR8GR16 1-167;1-276, |); experiment: cryo-EM
T1 sequence 1: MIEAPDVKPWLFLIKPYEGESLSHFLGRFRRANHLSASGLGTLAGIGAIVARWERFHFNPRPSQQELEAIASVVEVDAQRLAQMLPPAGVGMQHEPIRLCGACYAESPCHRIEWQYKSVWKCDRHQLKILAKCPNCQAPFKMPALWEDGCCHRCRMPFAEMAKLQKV
T1 sequence 2: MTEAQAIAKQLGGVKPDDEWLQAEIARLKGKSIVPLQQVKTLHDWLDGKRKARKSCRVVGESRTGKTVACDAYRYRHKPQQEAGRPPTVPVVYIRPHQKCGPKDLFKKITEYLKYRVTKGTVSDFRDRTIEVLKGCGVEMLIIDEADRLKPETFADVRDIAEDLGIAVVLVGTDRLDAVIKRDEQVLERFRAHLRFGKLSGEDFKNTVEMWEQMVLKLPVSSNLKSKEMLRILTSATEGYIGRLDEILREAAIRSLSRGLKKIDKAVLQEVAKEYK

site-specific transposition activity of ShCAST in E. coli (ddPCR) [1]: > 90 % reduction
Molecule: TniQ with alanine substitution of Trp10 (natural protein)

site-specific transposition activity of ShCAST in E. coli (ddPCR) [1]: 50 % reduction
Molecule: TniQ with glutamate substitution of Arg155 (natural protein)

B1: Target_69 duplex (oIQ088/oIQ089) (dsDNA)
DNA 1: GCGAAGGCTTAATCATCGTGGATGAAGCCGACCACCTCGATTACCCCACGCTTGAAGAACTGCGGATCC
DNA 2: GGATCCGCAGTTCTTCAAGCGTGGGGTAATCGAGGTGGTCGGCTTCATCCACGATGATTAAGCCTTCGC
binding result (ShTniQ;ShTnsC): binds
